# Assay results from publication PMC3750081.
# B1: p53 codon 248 O6-POB-G (dsDNA)
# DNA 1: CATGAACCGGAGGCCCATC
# DNA 2: GATGGGCCTCCGGTTCATG
# modifications: O6-POB-dG at strand 1 position 9
# B2: p53 codon 248 O6-POB-G:MeC base pair (dsDNA)
# DNA 1: CATGAACCGGAGGCCCATC
# DNA 2: GATGGGCCTCCGGTTCATG
# modifications: O6-POB-dG at strand 1 position 9; 5-methyl-C at strand 2 position 11
# B3: p53 codon 248 5'-MeC O6-POB-G (dsDNA)
# DNA 1: CATGAACCGGAGGCCCATC
# DNA 2: GATGGGCCTCCGGTTCATG
# modifications: O6-POB-dG at strand 1 position 9; 5-methyl-C at strand 1 position 8
# B4: p53 codon 158 5'-MeC O6-POB-G (dsDNA)
# DNA 1: ACCCGCGTCCGCGCCATGGCC
# DNA 2: GGCCATGGCGCGGACGCGGGT
# modifications: O6-POB-dG at strand 1 position 11; 5-methyl-C at strand 1 position 10 (text; Table 4 marks lost)
# B5: p53 codon 248 both MeC O6-POB-G (dsDNA)
# DNA 1: CATGAACCGGAGGCCCATC
# DNA 2: GATGGGCCTCCGGTTCATG
# modifications: O6-POB-dG at strand 1 position 9; 5-methyl-C at strand 1 position 8 and strand 2 position 11
# Molecular target: AGT (O6-alkylguanine-DNA alkyltransferase) C145A (Homo sapiens, UniProt P16455 1-207, C145A)
# Assay: EMSA
# Sequence of AGT (O6-alkylguanine-DNA alkyltransferase) C145A (P16455 whole entry C145A): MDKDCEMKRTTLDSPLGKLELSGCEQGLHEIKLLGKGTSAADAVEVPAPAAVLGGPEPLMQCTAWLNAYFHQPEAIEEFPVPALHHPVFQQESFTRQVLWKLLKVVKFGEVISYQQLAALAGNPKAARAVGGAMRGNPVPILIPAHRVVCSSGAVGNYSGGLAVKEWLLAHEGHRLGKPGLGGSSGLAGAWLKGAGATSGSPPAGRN
row,Binder,Kd
1,B1,2200 nM
2,B2,1800 ± 300 nM
3,B3,2000 ± 200 nM
4,B4,4800 ± 500 nM
5,B5,1000 ± 100 nM
